Source: the supplement of paper PMC10567573

B1: TRIM43 (parent)
chain: FCDMDKSLLCLLCSNSQEHGAHKH
B2: C10orf62 (parent)
chain: TSECPSDKDKSPESHKAKNESWIK

Variants of: B1
Assay: protein stability index of a GFP-peptide fusion (GPS, HEK-293T) (PSI 1-6); higher = more stable
Conditions: c terminus: a fixed tail appended
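Note: lentivirally expressed fusions sorted by FACS into six bins by GFP to DsRed ratio, PSI derived from sequencing read proportions per bin multiplied by bin number.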

Protein stability index of substitutions, site by site:
C10: Q 1.86, P 2.3, H 2.03, M 2.15, T 1.72, D 2.18, F 2.58, W 2.57, E 2.23, G 1.64, L 2.14, S 1.59, V 1.86, K 2.04, A 2.23, N 1.83, I 2.06, Y 2.65, R 1.7
D5: V 2.74, G 2.33, W 3.29, Q 1.98, A 2.67, E 1.92, T 2.34, M 2.97, P 2.29, Y 2.18, F 3.03, K 2.22, H 3.33, N 1.8, I 3.01, R 1.74, L 2.69, C 2.02, S 1.79
L8: K 2.86, V 2.72, S 3.1, W 2.3, F 2.5, I 1.96, H 2.54, G 2.3, Q 2.82, P 2.51, C 2.64, Y 2.03, E 3.8, N 2.81, R 2.71, T 2.32, A 2.43, D 3.41, M 2.31
L11: F 2.04, R 2.19, W 2.79, G 1.93, T 2.51, E 2.93, D 2.75, K 2.2, Q 2.36, H 2.04, C 1.44, I 2.25, P 1.83, N 2.07, V 1.63, A 2.21, S 1.8, M 1.86, Y 2.26
F1: D 3.56, H 3.64, C 3.54, A 3.33, E 4.17, M 3.41, V 3.25, P 3.6, W 2.45, K 3.56, Q 3.72, R 3.57, S 3.72, G 3.49, T 3.21, N 3.57, Y 1.88, L 3.21, I 2.81
M4: R 2.16, P 2, K 1.7, G 1.96, S 2.19, E 2.58, W 2.13, Q 1.88, I 1.96, D 2.86, F 2.04, C 3.14, A 2.07, H 3.6, N 1.85, Y 2.07, V 2.11, L 1.98, T 1.64
C2: K 3.4, T 1.84, N 2.58, F 2.23, Y 2.9, L 2.21, A 1.54, G 1.77, R 2.84, E 3.4, W 2.38, V 1.86, D 3.65, H 2.22, Q 2.43, I 1.8, M 2.31, S 2.51, P 2.76
L12: A 1.92, I 1.78, H 2.78, C 2.56, K 2.12, F 1.47, E 2.55, D 2.32, G 1.57
K6: N 2.32, Y 2.17, G 2.18, F 2.24, A 2.06, W 2.04, S 2.17, T 1.94, L 1.97, R 1.56, E 2.29, C 1.95, D 2.96, I 2.04, M 2.21, V 1.74, H 2.09, P 2.12, Q 2.38
L9: H 1.93, R 2.08, K 2.61, P 2.84, G 1.64, Y 1.46, S 1.88, W 1.55, E 2.99, N 2.52, V 2.16, F 1.89, A 1.99, C 2.36, D 2.78, T 2.29, Q 2.68, M 1.92, I 1.91
D3: R 1.99, Y 2.48, A 2.15, G 1.99, Q 2.07, H 2.35, I 1.94, V 2.76, K 2.35, S 1.99, M 2.54, T 1.82, N 1.75, L 1.93, C 2.26, P 1.67, F 2, W 1.8, E 2.09
S7: D 2.48, I 1.84, Q 2.54, G 1.92, W 1.79, L 1.93, K 1.92, Y 2.1, N 2.22, P 2.62, A 1.77, E 2.12, T 2.04, M 2.23, C 2.26, V 1.79, H 2.22, F 2.72, R 1.65

Variants of: B2
Assay: as above
Conditions: c terminus: a fixed tail appended

Protein stability index: each site, then its substitutions
N19: I 4.02, P 3.19, T 2.94, E 4.23, D 3.99, G 3.92, Y 3.11, Q 3.13, S 3.97, L 3.3, W 3.46, F 2.87, V 3.41, H 2.42, M 3.64, R 2.84, C 3.63, A 2.83
E20: H 4.51, V 3.77, K 4.37, W 4.72, M 3.05, R 4.09, T 4.39, S 4.29, I 4.38, G 4.3, Y 4.2, P 4.83, L 4.56, N 4.69, F 4.74, D 4.02, C 4.47, Q 4.13, A 5.18
I23: C 2.89, H 5.18, Q 2.89, E 3.96, G 5.32, T 3.33, R 5.25, N 5.17, L 4.46, P 5.81, A 3.68, S 3.79, F 5.32, D 5.72, W 5.11, K 4.59, M 4.7, V 1.74, Y 5.21
K18: V 3.56, W 3.26, Y 4.32
W22: G 5.58, Q 5.8, P 5.54, E 5.67, M 5.6, H 5.83, C 5.18, R 5.84, Y 5.23, K 5.46, F 5.62, T 5.54, I 5.72, L 4.7, N 5.73, S 5.82, V 5.79, D 5.78, A 5.34
S21: V 4.47, F 5.12, N 5.12, K 4.84, G 4.34, A 4.61, P 3.56, T 3.97, C 4.11, H 4.95, Y 4.3, R 4.9, Q 4.62, W 4.49, D 5.57, L 3.65, I 4.77, M 4.36, E 5.3
K24: C 3.2, V 2.96, D 2.99, P 4.73, T 3.18, E 2.15, H 3.56, L 2.66, F 3.37, Y 3.16, R 3.92, M 2.76, G 3.77, I 2.69, Q 2.27, N 3.17, W 3.43, S 3.48, A 2.9
